Test: soluble on expression in E. coli; label from the status in PepcDB or PDB records
In the case of “MAHHHHHHMDTRGLRHLKSYLGKEGEQLARAKRASDVVPVLAARQAAAAAAARATAADVTTVSNTVPAPLSPSVMKYLGGRLASGATHKLSRTQMALAAALAAPGAPSTRGHAEGSENGETALAVTRAKVADMAAAVDTLAVSALELAARRAAEDTEARRSTAESSSLFVLVDTSSEAAEVAGQLEGRYGLTVLLLRDDNACRHPTFPSPASRAGVSTLRGTTSKTPAAERRKTKSNSRTVDEVAPKDEATESTPALAGAVVVVVATPAAFLAVDRRSAIWKFIGSCALLLRRAPTHTGSLLHTLKGIKAAASSSPTKTTPHALNAQRWACIGHVPAIAVLAAEQKWLTEPELDLLTTLRVERHVGSGVGVVSKSTEASVSSAVAALRAPVTVHYAVAQGTHRFQFLFGLLKGLAPHRGIVVHVATRECVAFLYDTLYSLVGELPSHVQLLSDYEGASAYTNMHTTADRQRLCVAFDSTVESGQNGKTAAVLLSCHGLVPRRGSVFLQYDVIPDLLNYNQFIAEVLSPGAVAADAGNDAGGTAPSAAAEVAVRRERMARRRKRSTSPTPAPVAARRVGADAANSAADASSGSKAAIPAAVNYTHILLLFRPNEVAGALRHLRRDGASRYRLEFRELGPRAGGRYFLIGEKLKSMNKKLFPVQNAAYDAYKATMRTYSTIGPRDVYDETKVSLEKVAEEFGYTELPLLDLRLKDTVFRPKEDYYRAARQKQDAERRAYKAFVQGNIVGESPEEHVADSVA”, the “soluble on expression in E. coli” value is reported as “soluble”.
In the case of “MAHHHHHHMDTRMKDLSFKVVLLGEGRVGKTSLISRYVHNAFDEKEASTVQASMHSSKAVPINDASSAPGAIREVDLALWDTAGQERFHALAPMYYRNADGAIIVYDVTDADTLRKVRTWAKELYAVVGEGKIQLVLCGNKADTPLAEREVSEGEGAAMAAELGASHFFASAKTGQNVAEVFSAMATQVARSREVTGMGGGVAAGGSSGSSGGGAYTGISGRTPSRSRARRGLMVVTEDGEAVTPGRSSPCEGRVYGGITPPRAHRYGSSGTNQPITLSADGSPDAAAAANKSGCC”, the “soluble on expression in E. coli” value is reported as “soluble”.
With “MAHHHHHHMDTSARRCFVEVYTDGCDEPRLLQLEPTVKFHNVLRRFDKDGDLYWGDHRIDPQTTPVAVGMDCGVDKANTLWFIPALPRAKPCGVSRVDSTAPLGSPPPVDATEGPALRPARGTSLPAYFDDRAAPWHSSGDHAARGSLIRAWMASASAATTPSWYSRPRLLSPVPLSLPRSAVRVPHTQVQPPSGMPTDPIMHAAGGSRHTGAPVAALEAHGGEKIAPVRRLCAAPAPRAPSPPHSTVPVRRNAPVCIDPHVLVDDTSDAVEALQTELRHLSSEMRAMRLRNPLDYNSVTPMRQVVVRPAGMDAAPAIASPICLSMAEPSVEELATELHDKQMHRLYKQRHLYLTHDFHV” the “soluble on expression in E. coli” value was “not soluble”.
For “MAHHHHHHMDVLGTCTALVATLQEPQEDIQSRDHYELVLLDGPSLPIVGVSSTGGLLAATSAASAAAAATAAVAAADDTMSSTEAAKESASDSDAAVTRVKTTIDLHQAFARFQRTDSAENYLLDVVYVGDCTMMLIRNGRVCYVTEEQAHQLDYPYQLGTGSNDTPKDGVRLLIPVEKGDIVVMGTDGIFDNLYPHRIVELIWPHLERVFSQHGYLQALGGAETAKAPANAVSYVKNRNLRTLLDDIMAALDMGANAVMADAMTVSRDVRCDSPYASKCIENGALFEGGKPDDMTLLISVIGESDDGEPSEQFSGSETAFPLPYRDWP”, the “soluble on expression in E. coli” value was “not soluble”.
In the case of “MAHHHHHHMEDDFHVDEEYIKQLSEKYKNAEHPLFMDELPANIEENEDLHALYNLMIDDEDELSLAKNFKQVGNDYYQDGTKYFEDAIISYTKGIDILTKYWEDKNLEKRKAERGKLRNDSNSSPTEGTKSNAQNVSSQRISNGVSIENGESTAGEEAGKPAVKGDSTSSRKGTEITVLNGLHNEGGHRDDLRDNEIRGVLADLHCNRAIVHYKKKRYVKCLQDCRKAYAFNQTKFKSVYYSILCSYHLELYKDAHMYVNRFEDMTKSIDLKNHINLNEYEKMKEIIFKKDEDILERKKVDQNEKRKAEENEKNVANLVQDILHKRNIQMVENVYQQGNNVIPVLYVDTSMYIHFTVFLLYFERAIMETIIDFAENQSIMDHYDIVKKNKNNHLLFCYIEFPYDVFFMIHSSSYICDVLNRAKLFSPILSIHIIENEEANRQFRSGKTIKSIPL”, the “soluble on expression in E. coli” value is reported as “not soluble”.
For “MAHHHHHHMEINISNITNSSNNKKERVNIHSHIKGLGVNTNIYLHENEISLSDEKYSMFFDNSCGLVGQFKAREASLFLVDLIKQKKLAGKCILLAGPSGSGKSALAIGISREINRKMPFVFLSGSEVYSNEIKKTEVILEAFRKSIHIKIKEEKLVYEGEVVDMVVEENECLYSLNKAKQINAIIITLKSVKGSKTLRLAPKIHEQIAREKIKIGDVIYIETNTGHVKRLGRCNDYAKEYDIEFDEYVSLPKGEVHKKKEVVQQISLHDIDLANANPTVGEDLASVLNSYLRPKKTEITEKLRVEINKTVNKFLESGLAEIIPGVLYIDEAHMLDIECFSYLNRAIESPLAPILIMATNRGICTVKGTDNIEPHGIPVDLLDRLIIIKTFPYTLKEIVQILALRAQTEKINITEEGMNYLAKIGIQSSLRFAMLLLEPSRILATLEGNTIIDIKHIEQADELFMDAKTSAHRVVDQSNKFVN”, the “soluble on expression in E. coli” value was “not soluble”.
With “MAHHHHHHMEQLNDDDERENLYFVDHGRPKYKHTDLLAMLRDAQSAIIRFSEENRDIIADAVNFASTSERANTLRKLEEAYLGIVKVQAPMVRCSRPAFRKLCRLWGTDVSYTHMIMADSFTCSDAARHADFSMYAGEERLVAQIASCSGPVAAEAATLLAPYCDAIDLNCGCPQRWIIKEGLGSALLQKPEVVADMVRCIHNGLSGGVDLPCVVKMRVSNDVGRSVDFARQCEAAGCGWITVHGRTPSCSAHAPVRLDAIRTIRECVSVPVVANGGVNNPQTALKTSLTTGAGAVMSATGLLANPACFYVPREGELLLFAPQRRGVDVALEASMGPCRGADEGASTAGSENSAWLKGLPGCPVEVISDFIRLSCVTDLASKATSMHLLKMGGNYLSPTERVFLAQMHSSFSVVSALQQLGLYTQDGKFRVVESVT” the “soluble on expression in E. coli” value was “soluble”.
With “MAHHHHHHMERGKNPMEAELNRAPQEVSLSAFSLLFSEIVQYCLWKSKRGYRIEDSLHEMGLRVGYKLNEYLPYKNKTKRCVNIISILTFLSKHLWKYLFQHSSDLLKSQDSIYEYMLCDKNILLNRFISVPKDYGNINCASFAAGIVEGMLCSAEFQAEVTAHTVYEDEKNFNTTIFIKFYPEVVNRERGEK” the “soluble on expression in E. coli” value was “not soluble”.
With “MAHHHHHHMERSLYYTPQLLWLQVMDRMPYEFTHYFVSSPPPHHEAMLSGIREQYGRPYSAAKPFDVELLGRLWNGHSRVMFATDNLVFSAVDHSVSDRWKEMGFQGTDPSTDFRGAGIFGLAQLVYLVEHHPEEWSAILTPDFMAAAAGLNVTMRLATMLGINSSLNQLSSSVLSKYSAREARLQLCRFIFDPSVDVATQRLSEVYCFAMRLLHYRWMRSTRNIMEFNQQLSSMYTELDRLLFLCNTLEELCSLL” the “soluble on expression in E. coli” value was “not soluble”.
For “MAHHHHHHMFRDGYSLDSVCHRLRYEIGVPHDGVYLHEPPGGSFAAVTQFGVAVGVTREQLPHASRHYNVHALIFDDRGYHALDELPRLSVAPQAYLHRILLRCVSGDEAAVAQRLRHLSSNGFINYFGLESFGIGSNTLFDMAAFAFRREPHRSVGAYLQTLAECSPLHHQPYLSYANAEESTVAGAVAEWLRVCERAKLPRETRELLRKLHCYHLSQCHPSDATTISMEDVWKACPIMHRAEQSAAAFVWNAMASQRLLSFGSRPVKGDLVCRIGNRGAIEIAEVASDTDASHYTIDDVVLPIPCGGTPAAELRYPTHSVNEAFFTQFAKKHSLSFLFNSGVDPTPRAAATLGPYRRLVSRPRNLQAAVLQDPSSCAALKSDLFLLQEHQPTEGWSLDYRQRVREPSNFNVSERFRERMSCIRKRRAGEHSVALAFVLPAGSSPWVALREAFHMHYGTFHDFYGVS”, the “soluble on expression in E. coli” value was “not soluble”.
With “MAHHHHHHMFYLFDEKAMSTNIKVKSVKRLVYNRHIKGDEAVLSLDLSYDMSKAFNWNLKQLFLYVLVTYETPEKVKNEVIIQDYIITNKNVAKRTYKNFITKYSLKDYNNGLRNNNINLQVCYKYMPIVGLSRSYEGTKISYKLPAEYFDNLPSNYPLYYPDK” the “soluble on expression in E. coli” value was “not soluble”.
For “MAHHHHHHMGKVRKNKQVRNLLKSLTERVDTDDGENEYARLTQTPVVSMRLSKVKFKTSLQNVLVEPYTERVKDFVAKNNYEIRMERALLDEIKNANQNMNRIGDVLSARGGKQGKTRDNHIIMSRYFHYLKDKDEDFGLSFFPVYKTFKSNASHFGDNLSSSLYPHELLQMGSMSSESFLKNSPKRISFPERGDS”, the “soluble on expression in E. coli” value was “not soluble”.

Source: the DeepSol protein solubility set
